A word on the Kd: it is the constant that tells how readily two partners part at equilibrium.

For experiment [1], the target named is MART-1 (ELA peptide) peptide on HLA-A*02:01 (human). Put plainly: SPR, Biacore 3000; TCR amine-coupled to a CM5 chip, refolded ELA/HLA-A2 injected, 25 °C (Table 3, ELA); soluble, other. On the technique in general: In SPR one partner is held on a chip, and binding of the other changes the refractive index at the surface.
Experiment [2] shares this target. Briefly: SPR, Biacore 3000; TCR on the chip, refolded pMHC injected. The row prints the target as 'AAG (SEQ ID NO 5', but its ratio 395.8 is taken against the WT ELA value 9.5, and Table 3 gives 0.024 under ELA); soluble, other.
Experiment [3] shares this target. Briefly: SPR, Biacore 3000; TCR amine-coupled to a CM5 chip, refolded pMHC injected, 25 °C, 1:1 Langmuir fit; soluble, other.

Consider DMF5 TCR αD26Y/βL98W, for which the Kd in experiment [1] and in experiment [2] was 24 nM in each case.
Consider DMF5 TCR βL98W, for which the Kd in experiment [3] is 2900 nM.

Source of the values: patent US20170333524A1.
